Measurements: article PMC6133988, “Characterization of Arabidopsis thaliana Hydroxyphenylpyruvate Reductases in the Tyrosine Conversion Pathway” (Frontiers in Plant Science, 2018)

How the values were obtained:
Assay in all cases: LC-MRM-MS product quantification, non-linear regression
Assay type in all cases: biochemical, Arabidopsis thaliana
[1] = substrate: O=C(O)C(=O)CO; settings: NADPH (2 mM), 100 mM potassium phosphate pH 7.0, 4 mM DTT, 40 μM ascorbate, 30 °C
From the text: (§1) LC-MRM-MS product quantification, non-linear regression on HPPR2

[2] = substrate: O=C(O)C(=O)Cc1ccc(O)cc1; settings: NADPH (2 mM), 100 mM potassium phosphate pH 7.0, 4 mM DTT, 40 μM ascorbate, 30 °C
From the text: as §1

[3] = substrate: O=C(O)C(=O)Cc1ccccc1; settings: NADPH (2 mM), 100 mM potassium phosphate pH 7.0, 4 mM DTT, 40 μM ascorbate, 30 °C
From the text: as §1

[4] = substrate: O=C(O)C(=O)CO; settings: NADPH (2 mM), 100 mM potassium phosphate pH 7.0, 4 mM DTT, 40 μM ascorbate, 30 °C; remark: listed apart in the source
From the text: (§2) LC-MRM-MS product quantification, non-linear regression on HPPR3

[5] = substrate: O=C(O)C(=O)Cc1ccc(O)cc1; settings: NADPH (2 mM), 100 mM potassium phosphate pH 7.0, 4 mM DTT, 40 μM ascorbate, 30 °C; remark: listed apart in the source
From the text: as §2

[6] = substrate: O=C(O)C(=O)Cc1ccccc1; settings: NADPH (2 mM), 100 mM potassium phosphate pH 7.0, 4 mM DTT, 40 μM ascorbate, 30 °C; remark: listed apart in the source
From the text: as §2

[7] = substrate: O=C(O)C(=O)CO; settings: NADH (2 mM), 100 mM potassium phosphate pH 7.0, 4 mM DTT, 40 μM ascorbate, 30 °C
From the text: LC-MRM-MS product quantification, non-linear regression on HPR1

B1: HPPR2 (Arabidopsis thaliana) (protein)
chain: MESIGVLMMCPMSSYLENELEKRFNLLRFWTSPEKSVLLETHRNSIRAVVGNASAGADAQLISDLPNLEIVSSFSVGLDKIDLGKCKEKGIRVTNTPDVLTEDVADLAIGLILALLRRLCECDRYVRSGKWKQGEFQLTTKFSGKSVGIIGLGRIGTAIAKRAEAFSCPINYYSRTIKPDVAYKYYPTVVDLAQNSDILVVACPLTEQTRHIVDRQVMDALGAKGVLINIGRGPHVDEQELIKALTEGRLGGAALDVFEQEPHVPEELFGLENVVLLPHVGSGTVETRNAMADLVVGNLEAHFSGKSLLTPVV
notes: coding region from Arabidopsis cDNA in pDEST17, His-tagged, E. coli, Ni-NTA purified
Km [1]: 1050 ± 390 µM | kcat [1]: 0.926 ± 0.0788 s⁻¹ | kcat/Km [1]: 950 ± 296 M⁻¹ s⁻¹ | Km [2]: 800 ± 160 µM | kcat [2]: 0.122 ± 0.0085 s⁻¹ | kcat/Km [2]: 157 ± 36.3 M⁻¹ s⁻¹ | Km [3]: 3700 ± 750 µM | kcat [3]: 0.0333 ± 0.00983 s⁻¹ | kcat/Km [3]: 9 ± 1.17 M⁻¹ s⁻¹

B2: HPPR3 (Arabidopsis thaliana) (protein)
chain: MAESSEPPVVLLHRPPSLTFMDEILTREFRTLITDTSSSESLPSFFPRHASSARAFVISGRLPVTDELLSHLPSLQILVCTSVGIDHIDLAACKRRGIVITNAGNAFSDDVADCAVGLLISVLRRIPAADRYVRSGNWAKFGDFQLGSKVSGKRVGIVGLGSIGSFVAKRLESFGCVISYNSRSQKQSSPYRYYSDILSLAENNDVLVLCCSLTDETHHIVNREVMELLGKDGVVINVGRGKLIDEKEMVKCLVDGVIGGAGLDVFENEPAVPQELFGLDNVVLSPHFAVATPGSLDNVAQIALANLKAFFSNRPLLSPVQLD
notes: as for B1
Km [4]: 3570 ± 480 µM | kcat [4]: 0.0518 ± 0.0035 s⁻¹ | kcat/Km [4]: 14.8 ± 2.83 M⁻¹ s⁻¹ | Km [5]: 370 ± 60 µM | kcat [5]: 0.285 ± 0.0158 s⁻¹ | kcat/Km [5]: 785 ± 87.3 M⁻¹ s⁻¹ | Km [6]: 1520 ± 50 µM | kcat [6]: 0.611 ± 0.0692 s⁻¹ | kcat/Km [6]: 402 ± 49.2 M⁻¹ s⁻¹

B3: HPR1 (Arabidopsis thaliana) (protein)
chain: MAKPVSIEVYNPNGKYRVVSTKPMPGTRWINLLVDQGCRVEICHLKKTILSVEDIIDLIGDKCDGVIGQLTEDWGETLFSALSKAGGKAFSNMAVGYNNVDVEAANKYGIAVGNTPGVLTETTAELAASLSLAAARRIVEADEFMRGGLYEGWLPHLFVGNLLKGQTVGVIGAGRIGSAYARMMVEGFKMNLIYFDLYQSTRLEKFVTAYGQFLKANGEQPVTWKRASSMEEVLREADLISLHPVLDKTTYHLVNKERLAMMKKEAILVNCSRGPVIDEAALVEHLKENPMFRVGLDVFEEEPFMKPGLADTKNAIVVPHIASASKWTREGMATLAALNVLGRVKGYPIWHDPNRVDPFLNENASPPNASPSIVNSKALGLPVSKL
notes: as for B1
Km [7]: 1530 ± 720 µM | kcat [7]: 3.46 ± 0.0838 s⁻¹ | kcat/Km [7]: 2570 ± 1040 M⁻¹ s⁻¹
